The results in this text go back to patent publication US20220089647A1 (FUJIFILM, published 2022).

Starred links: 1 amine or outer side, 2 acyl side, 3 side chain; linkers in the order of their positions; H or OH if unused. Positions of bridges follow the written chain, without caps; N, C: chain ends. Non-standard residues stand in square brackets, D forms with d. Primed or numbered codes have the meaning given here. No end group written: not given here. Dab(acetyl)″ = 2-amino-4-(acetylamino)butanoic acid, acetyl CH3 carbon bonded to the S of Hcy (S-CH2-C(=O)-NH-), O=C(C[*:3])NCC[C@H](N[*:1])C(=O)[*:2]; Dab(acetyl) = 2-amino-4-acetylamino-butanoic acid residue (N-γ-acetyl-diaminobutyric acid), CC(=O)NCC[C@H](N[*:1])C(=O)[*:2]; Dab(acetyl)(3) = 2-amino-4-(acetylamino)butanoic acid (Dab with N-γ-acetyl), CC(=O)NCC[C@H](N[*:1])C(=O)[*:2]; COCH2 = acetyl group that carries the bridge; hCys = N[C@@H](CCS)C(=O)O; Dab = NCC[C@H](N)C(=O)O Some results are limits rather than exact numbers.

The target in the test is T1, human integrin αvβ5 (human, UniProt P06756 31-992; P18084 24-719, limits assumed).
T1 construct: Heterodimer flowed as analyte at 30, 100, 300 and 1,000 nM in HEPES buffer with 5 mM MgCl2
T1 sequence (P06756 31-992 limits assumed, chain 1 of 2): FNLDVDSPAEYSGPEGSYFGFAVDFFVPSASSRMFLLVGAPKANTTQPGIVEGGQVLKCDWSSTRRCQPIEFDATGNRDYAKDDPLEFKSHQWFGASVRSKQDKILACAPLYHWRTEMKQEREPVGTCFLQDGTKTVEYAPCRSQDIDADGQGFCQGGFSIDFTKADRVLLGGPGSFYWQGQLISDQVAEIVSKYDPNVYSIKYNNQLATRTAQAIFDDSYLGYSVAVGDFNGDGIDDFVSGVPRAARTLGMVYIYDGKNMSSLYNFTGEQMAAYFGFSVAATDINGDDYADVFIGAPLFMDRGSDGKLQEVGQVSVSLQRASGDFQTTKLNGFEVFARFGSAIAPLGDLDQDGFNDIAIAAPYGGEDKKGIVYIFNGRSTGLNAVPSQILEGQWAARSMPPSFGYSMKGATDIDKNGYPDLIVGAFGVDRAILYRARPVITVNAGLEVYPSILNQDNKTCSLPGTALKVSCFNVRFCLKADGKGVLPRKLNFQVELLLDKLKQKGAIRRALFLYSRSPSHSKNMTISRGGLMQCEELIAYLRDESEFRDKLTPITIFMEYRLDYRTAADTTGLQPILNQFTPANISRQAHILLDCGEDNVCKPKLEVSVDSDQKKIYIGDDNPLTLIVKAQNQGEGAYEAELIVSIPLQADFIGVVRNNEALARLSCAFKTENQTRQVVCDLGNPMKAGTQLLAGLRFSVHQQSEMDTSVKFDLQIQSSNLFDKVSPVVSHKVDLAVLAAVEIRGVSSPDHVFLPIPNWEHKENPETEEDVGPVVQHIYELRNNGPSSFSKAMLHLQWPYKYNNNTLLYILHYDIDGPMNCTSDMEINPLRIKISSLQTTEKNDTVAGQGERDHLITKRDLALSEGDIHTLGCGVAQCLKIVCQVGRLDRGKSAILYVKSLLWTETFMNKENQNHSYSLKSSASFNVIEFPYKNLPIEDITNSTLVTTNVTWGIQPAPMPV
T1 sequence (P18084 24-719 limits assumed, chain 2 of 2): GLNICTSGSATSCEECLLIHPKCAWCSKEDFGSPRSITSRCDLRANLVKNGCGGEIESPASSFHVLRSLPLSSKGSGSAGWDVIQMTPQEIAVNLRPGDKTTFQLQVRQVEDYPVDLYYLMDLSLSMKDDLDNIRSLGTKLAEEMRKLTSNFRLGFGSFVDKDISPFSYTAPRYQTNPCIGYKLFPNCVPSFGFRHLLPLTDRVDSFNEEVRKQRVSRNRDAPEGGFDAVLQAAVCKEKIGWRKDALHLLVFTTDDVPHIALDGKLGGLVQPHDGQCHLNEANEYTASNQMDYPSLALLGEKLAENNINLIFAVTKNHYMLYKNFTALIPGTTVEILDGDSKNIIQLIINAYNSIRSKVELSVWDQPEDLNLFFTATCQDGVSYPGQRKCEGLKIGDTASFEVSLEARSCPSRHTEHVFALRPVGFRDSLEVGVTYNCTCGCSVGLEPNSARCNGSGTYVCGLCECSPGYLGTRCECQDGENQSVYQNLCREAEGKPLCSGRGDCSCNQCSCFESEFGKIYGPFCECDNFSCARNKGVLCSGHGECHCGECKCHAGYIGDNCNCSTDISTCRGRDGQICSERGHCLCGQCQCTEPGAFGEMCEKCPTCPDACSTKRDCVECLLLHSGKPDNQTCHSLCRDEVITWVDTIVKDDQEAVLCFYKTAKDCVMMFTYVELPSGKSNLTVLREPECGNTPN
Description: SPR, Biacore 3000, peptide immobilised; A = KD 50 nM or less. Here is the method: However, only for the cyclic peptides 125, 126, and 127, in which the number of lysine residues having an amino group as the immobilizing functional group was zero, the amount of the sample solution to be supplied to the sensor chip was set to 500 μL instead of 20 μL. Further, 70 μL of the mixed aqueous solution of 0.2 M EDC and 0.04 M NHS was added to another flow channel of the same sensor chip without immobilizing the sample, and then blocking treatment and washing treatment were carried out. Hereinafter, the obtained immobilization-treated sensor chip is referred to as an “immobilization-treated sensor chip A”.
After adding human integrin αvβ5 for 10 minutes at 25° C., which was diluted to 30 nM using a HEPES buffer solution to which magnesium chloride was added to 5 mM, in each flow channel of the immobilization-treated sensor chip A prepared in (1) above, the same HEPES buffer solution (containing 5 mM magnesium chloride) was allowed to flow as a running buffer for 30 minutes, and measurement was carried out with Biacore 3000. Then, a regeneration treatment of removing human integrin αvβ5 was carried out by allowing a 0.5 M EDTA aqueous solution to flow through each flow channel for 10 minutes. Further, the above-described measurement process consisting of adding integrin for 10 minutes, allowing a running buffer to flow for 30 minutes, carrying out measurement with Biacore 3000, and carrying out regeneration treatment with 0.5 M EDTA aqueous solution was carried out in the same manner for 100 nM human integrin αvβ5, 300 nM human integrin αvβ5, and 1,000 nM human integrin αvβ5. Dissociation constant between the cyclic peptide and human integrin αvβ5 was calculated from the difference between the value measured by Biacore 3000 in the flow channel immobilized with the cyclic peptide and the value measured by Biacore 3000 in the flow channel unimmobilized with the cyclic peptide, in a case where each concentration of human integrin αvβ5 was allowed to flow, and the integrin binding property was evaluated according to the following evaluation standards. It is preferable that the evaluation result satisfies the evaluation standard A, B, or C.
(In general: SPR reads the build-up and loss of mass on a sensor chip optically.)

As for KKK[hCys]IPRGDTF[Dab(acetyl)″]A (thioether 4-12) [Cyclic peptide 60], the “dissociation constant (KD)” value is no more than 50 nM.

For the molecule KKK[hCys]VPRGDTFA[Dab(acetyl)″] (thioether 4-13) [Cyclic peptide 104], the dissociation constant was no more than 50 nM.

As for KKK[hCys]IPRGDNFR[Dab(acetyl)(3)] (thioether 4-13) [Cyclic peptide 11], the “dissociation constant (KD)” value was no more than 50 nM.

With KKK[hCys]IPRGDTFR[Dab(acetyl)″] (thioether 4-13) [Cyclic peptide 61], the dissociation constant is no more than 50 nM.

In turn, KKK[hCys]VPRGDSFA[Dab(acetyl)″] (thioether 4-13) [Cyclic peptide 102] showed a dissociation constant of no more than 50 nM.

In turn, KKK[hCys]IPRGDTFA[Dab(acetyl)″] (thioether 4-13) [Cyclic peptide 62] returned a dissociation constant of no more than 50 nM.

KKK[hCys]IPRGDSFA[Dab(acetyl)″] (thioether 4-13) [Cyclic peptide 101] gave a dissociation constant of no more than 50 nM.

On to [hCys]VPRGDTFA[Dab(acetyl)″]KKK (thioether 1-10) [Cyclic peptide 103], for which the dissociation constant is no more than 50 nM.

For the molecule KKKG[hCys]IPRGDTFR[Dab(acetyl)″]A (thioether 5-14) [Cyclic peptide 54], the “dissociation constant (KD)” value was no more than 50 nM.

With KKKA[hCys]IPRGDTFR[Dab(acetyl)″]A (thioether 5-14) [Cyclic peptide 56], the “dissociation constant (KD)” value is no more than 50 nM.

Consider KKKA[hCys]VPRGDSFA[Dab(acetyl)]A (thioether 5-14) [Cyclic peptide 96], for which the dissociation constant was no more than 50 nM.

With KKKG[hCys]IPRGDSFA[Dab(acetyl)]A (thioether 5-14) [Cyclic peptide 94], the dissociation constant is no more than 50 nM.

KKKA[hCys]IPRGDTFG[Dab(acetyl)]A (thioether 5-14) [Cyclic peptide 88]: the dissociation constant was no more than 50 nM.

B1: Cyclic peptide 122 (peptide)
peptide: KKKAXVPRGDTFAXA
modifications: not fully specified; KKKA(Dab(acetyl))VPRGDTFA-(Hcy)-A; thioether bond Dab(acetyl)-Hcy
In turn, B1 returned a dissociation constant of no more than 50 nM.

As for KKKA[hCys]IPRGDSFA[Dab(acetyl)]G (thioether 5-14) [Cyclic peptide 93], the dissociation constant was no more than 50 nM.

Take KKKG[hCys]IPRGDNFR[Dab(acetyl)(3)]A (thioether 5-14) [Cyclic peptide 1]: the “dissociation constant (KD)” value was no more than 50 nM.

As for KKKA[hCys]VPRGDTFA[Dab(acetyl)″]G (thioether 5-14) [Cyclic peptide 107], the dissociation constant was no more than 50 nM.

B2: Cyclic peptide 75 (peptide)
peptide: KKKAXTPRGDTFRXA
modifications: not fully specified; KKKA-(Hcy)-TPRGDTFR(Dab(acetyl))A; thioether bond Hcy-Dab(acetyl)
The molecule B2 returned a dissociation constant of no more than 50 nM.

KKKA[hCys]VPRGDTFA[Dab(acetyl)″]A (thioether 5-14) [Cyclic peptide 108]: the dissociation constant is no more than 50 nM.

As for KKKG[hCys]VPRGDSFA[Dab(acetyl)]A (thioether 5-14) [Cyclic peptide 98], the dissociation constant is no more than 50 nM.

On to KKKG[hCys]VPRGDTFA[Dab(acetyl)″]A (thioether 5-14) [Cyclic peptide 106], for which the dissociation constant is no more than 50 nM.

Consider KKKG[hCys]LPRGDNFR[Dab](COCH2)A (thioether 5-14) [Cyclic peptide 27], for which the “dissociation constant (KD)” value was no more than 50 nM.

Molecule KKKA[hCys]VPRGDSFA[Dab(acetyl)]G (thioether 5-14) [Cyclic peptide 97] returned a dissociation constant of no more than 50 nM.

B3: Cyclic peptide 77 (peptide)
peptide: KKKAXISRGDTFRXA
modifications: not fully specified; KKKA-(Hcy)-ISRGDTFR(Dab(acetyl))A; thioether bond Hcy-Dab(acetyl)
For B3, the dissociation constant is no more than 50 nM.

B4: Cyclic peptide 84 (peptide)
peptide: KKKGXIPRGDTFAXG
modifications: not fully specified; KKKG-(Hcy)-IPRGDTFA(Dab(acetyl))G; thioether bond Hcy-Dab(acetyl)
B4: the dissociation constant is no more than 50 nM.

B5: Cyclic peptide 78 (peptide)
peptide: KKKAXIPRGDVFRXA
modifications: not fully specified; KKKA-(Hcy)-IPRGDVFR(Dab(acetyl))A; thioether bond Hcy-Dab(acetyl)
B5 showed a dissociation constant of no more than 50 nM.

B6: Cyclic peptide 83 (peptide)
peptide: KKKAXIPRGDTFSXA
modifications: not fully specified; KKKA-(Hcy)-IPRGDTFS(Dab(acetyl))A; thioether bond Hcy-Dab(acetyl)
Consider B6, for which the dissociation constant was no more than 50 nM.

As to KKKG[hCys]VPRGDTFA[Dab(acetyl)″]G (thioether 5-14) [Cyclic peptide 105], the dissociation constant is no more than 50 nM.

In the case of KKKA[hCys]IPRGDSFA[Dab(acetyl)]A (thioether 5-14) [Cyclic peptide 92], the dissociation constant is no more than 50 nM.

Regarding KKKA[hCys]IPRGDAFA[Dab(acetyl)]A (thioether 5-14) [Cyclic peptide 90], the dissociation constant was no more than 50 nM.

Take KKKA[hCys]IPRGDTFA[Dab(acetyl)]A (thioether 5-14) [Cyclic peptide 87]: the dissociation constant is no more than 50 nM.

B7: Cyclic peptide 136 (peptide)
peptide: KKKAXVPRGDTFAXA
modifications: not fully specified; KKKA(Dab(acetyl))VPRGDTFA-(Pen)-A; thioether bond Dab(acetyl)-Pen
Molecule B7 showed a dissociation constant of no more than 50 nM.

KKKG[hCys]IPRGDTFA[Dab(acetyl)]A (thioether 5-14) [Cyclic peptide 86] yielded a dissociation constant of no more than 50 nM.

Take KKKA[hCys]IPRGDNFR[Dab](COCH2)A (thioether 5-14) [Cyclic peptide 2]: the “dissociation constant (KD)” value is no more than 50 nM.

With KKKG[hCys]IPRGDSFA[Dab(acetyl)]G (thioether 5-14) [Cyclic peptide 95], the dissociation constant was no more than 50 nM.

Regarding KKKG[hCys]VPRGDSFA[Dab(acetyl)]G (thioether 5-14) [Cyclic peptide 99], the dissociation constant was no more than 50 nM.

B8: Cyclic peptide 70 (peptide)
peptide: KKKGXVPRGDTFRXA
modifications: not fully specified; KKKG-(Hcy)-VPRGDTFR(Dab(acetyl))A; thioether bond Hcy-Dab(acetyl)
In turn, B8 had a dissociation constant of no more than 50 nM.

B9: Cyclic peptide 85 (peptide)
peptide: KKKAXIPRGDTFAXG
modifications: not fully specified; KKKA-(Hcy)-IPRGDTFA(Dab(acetyl))G; thioether bond Hcy-Dab(acetyl)
For the molecule B9, the dissociation constant was no more than 50 nM.

B10: Cyclic peptide 71 (peptide)
peptide: KKKGXLPRGDTFRXA
modifications: not fully specified; KKKG-(Hcy)-LPRGDTFR(Dab(acetyl))A; thioether bond Hcy-Dab(acetyl)
Consider B10, for which the dissociation constant was no more than 50 nM.

For KKKA[hCys]VPRGDAFA[Dab(acetyl)]A (thioether 5-14) [Cyclic peptide 91], the dissociation constant was no more than 50 nM.

In turn, KKKA[hCys]VTRGDTFR[Dab(acetyl)]A (thioether 5-14) [Cyclic peptide 89] yielded a dissociation constant of no more than 50 nM.

B11: Cyclic peptide 69 (peptide)
peptide: KKKGXEPRGDTFRXA
modifications: not fully specified; KKKG-(Hcy)-EPRGDTFR(Dab(acetyl))A; thioether bond Hcy-Dab(acetyl)
Molecule B11 had a dissociation constant of no more than 50 nM.

Consider KKKG[hCys]IPRGDTFR[Dab(acetyl)″]G (thioether 5-14) [Cyclic peptide 55], for which the “dissociation constant (KD)” value is no more than 50 nM.

B12: Cyclic peptide 74 (peptide)
peptide: KKKAXVPRGDTFRXA
modifications: not fully specified; KKKA-(Hcy)-VPRGDTFR(Dab(acetyl))A; thioether bond Hcy-Dab(acetyl)
For B12, the dissociation constant was no more than 50 nM.

As for A[hCys]VPRGDTFA[Dab(acetyl)″]AKKK (thioether 2-11) [Cyclic peptide 109], the dissociation constant is no more than 50 nM.

As for A[hCys]IPRGDSFA[Dab(acetyl)″]AKKK (thioether 2-11) [Cyclic peptide 100], the dissociation constant was no more than 50 nM.
